T1: full-length form of LIPG (500 amino acids) (Homo sapiens, UniProt Q9Y5X9)
T1 construct: A pull-down assay was performed on the full-length form of LIPG (500 amino acids); made in house
T1 sequence (Q9Y5X9 21-500): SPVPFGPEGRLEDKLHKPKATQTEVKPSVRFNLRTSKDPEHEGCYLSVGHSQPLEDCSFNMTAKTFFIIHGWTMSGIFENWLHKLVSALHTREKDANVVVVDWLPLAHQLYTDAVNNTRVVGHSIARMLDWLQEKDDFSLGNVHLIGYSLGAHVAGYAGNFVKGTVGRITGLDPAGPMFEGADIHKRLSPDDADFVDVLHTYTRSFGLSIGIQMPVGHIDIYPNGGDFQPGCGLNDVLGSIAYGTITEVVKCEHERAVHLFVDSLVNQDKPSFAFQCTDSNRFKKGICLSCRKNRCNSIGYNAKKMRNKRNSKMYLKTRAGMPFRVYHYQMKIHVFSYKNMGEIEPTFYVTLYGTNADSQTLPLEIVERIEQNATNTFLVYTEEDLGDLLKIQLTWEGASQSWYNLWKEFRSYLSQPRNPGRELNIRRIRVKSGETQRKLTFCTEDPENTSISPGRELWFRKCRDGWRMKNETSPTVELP

B1: 10M-LN4N: fusion of ASGR3-10M scFv, cleavage sequence, LIPH4-N4BP1a, S28, nuclear localization signal (SEQ ID NO: 133) (protein)
chain: RVRRSNCRINTFRTVPIEQKDYKDDDDKHHHHHHHPFVIGAGVLGALGTGIGGITTSTQFYYKPAAKRVKLD
modifications: cleavage sequence + LIPH4-N4BP1a + Flag-tag + His-tag + S28 + nuclear localization signal
B2: 10M-LLNTSN-S39: fusion of ASGR3-10M scFv, cleavage sequence, LIPH4-LNTNBs, S39, nuclear localization signal (SEQ ID NO: 132) (protein)
chain: RVRRLNCRHNTAGDYKDDDDKHHHHHHHPFVIGAGVLGALGTGIGGITTSTQFYYKLSQELNGDMERPAAKRVKLD
modifications: cleavage sequence + LIPH4-NTNBs + Flag-tag + His-tag + S39 + nuclear localization signal
B3: 10M-LN4SN: fusion of ASGR3-10M scFv, cleavage sequence, LIPH4-N4BP1b, S28, nuclear localization signal (SEQ ID NO: 134) (protein)
chain: RVRRSNCRINTFRDYKDDDDKHHHHHHHPFVIGAGVLGALGTGIGGITTSTQFYYKPAAKRVKLD
modifications: cleavage sequence + LIPH4-N4BP1b + Flag-tag + His-tag + S28 + nuclear localization signal
B4: 10M-LLNTSN: fusion of ASGR3-10M scFv, cleavage sequence, LIPH4-LNTNBs, S28, nuclear localization signal (SEQ ID NO: 131) (protein)
chain: RVRRLNCRHNTAGDYKDDDDKHHHHHHHPFVIGAGVLGALGTGIGGITTSTQFYYKPAAKRVKLD
modifications: cleavage sequence + LIPH4-NTNBs + Flag-tag + His-tag + S28 + nuclear localization signal

These molecules were tested on HBV (assay: Anti-HBV activities of LIPG-binding peptides in PXB cells). Details: HBV-infected PXB cells.
Type: cell-based
Experimental: (§1) An infection source medium was prepared by adding the HBV-infected chimeric mouse serum (PhoenixBio), DMSO, and a PEG 8000 solution to the PXB cell culture medium (PhoenixBio) at final concentrations of 5 genome equivalents/cell, 2%, and 4%, respectively. Various synthesized peptides were diluted to different concentrations in this medium, and the resulting media were added individually to PXB cells (PhoenixBio). After the cells were left to stand in a 5% CO2 incubator at 37° C. for 20 to 28 hours, the medium was removed and the wells were washed once with PBS(−). DMSO and one of the various synthesized peptides were added to the PXB cell culture medium at a final concentration of 2% and different concentrations, respectively, and the resulting media were added individually to the PXB cells to perform medium exchange. This medium exchange was performed at 1, 5, and 9 days post infection and samples were collected at 14 days post infection.
(§2) SMI TEST™ M EX-R&D (Medical & Biological Laboratories) was used to extract DNA from the samples. The extracted DNA was used as a template for quantitative PCR of HBV-DNA. For cccDNA detection, the extracted DNA was treated with T5 exonuclease (New England Biolabs), and the resulting DNA was used as a template for quantitative PCR. The T5 exonuclease treatment was performed at 37° C. for 30 minutes, and the DNase was later inactivated by heating at 80° C. for 15 minutes. The following primer set was used for detection.
PXB cells, fresh human liver cells isolated from PXB mice (human hepatocyte chimeric mice), are human liver cells that maintain human liver functions at high levels and allow persistent infection with hepatitis B virus (HBV). Therefore, PXB cells were used to evaluate the anti-HBV activities of LIPG-binding peptides. LIPG-binding peptides were chemically synthesized because they were added extracellularly (Eurofins Genomics K.K.). Clones that had shown excellent results in the studies of Examples 10 and 1 (KIgk-LIPH4-23, KIgk-LIPH4-74, KIgk-LIPH4-15, KIgk-L1l 14-2. KIgk-LIPH14-14. KIgk-LIPH4-87) were selected for chemical synthesis of the peptides. […] Therefore, LIPH4-NTNA and LIPH4-NTNB, which share a common sequence with netrins and consist of 16 amino acids, were also chemically synthesized. The chemically synthesized peptides were dissolved in DMSO for use in HBV assays in PXB cells.
Next, the anti-HBV activity of full-length Netrin-1 was examined in PXB cells. A full-length human recombinant Netrin-1 protein consisting of 604 amino acid residues (molecular weight: 67.5 kDa, SEQ ID NO: 28) was purchased from R&D Systems. United States. A shRNA with the sequence […]ctcgagc[…] TTTTTTG (single underline: terminal sequences for cloning, lowercase letters: hairpin loop sequence) (SEQ ID NO: 64) was used to knock down the Netrin-1 gene.

| Molecule | anti-HBV activity (effect to reduce HBV DNA and cccDNA copy numbers) |
| --- | --- |
| LNCRHNTAGRHCHYCK (LIPH4-NTNB) | high anti-HBV activity |
| RKSGGVCLNCRHNTAG (LIPH4-NTNA) | as strongly as the polypeptides (5) to (10) |

Same assay, conditions: HBV-infected PXB cells; listed as polypeptide (12)

| Molecule | anti-HBV activity (effect to reduce HBV DNA and cccDNA copy numbers) |
| --- | --- |
| LNCRHNTAGRHCHYCK (LIPH4-NTNB) | as strongly as the polypeptides (5) to (10) |

Same assay, conditions: PXB cells, Netrin-1 gene knocked down, vs control

| Molecule | HBV-DNA copy number | cccDNA copy number |
| --- | --- | --- |
| Netrin-1 shRNA: shRNA of SEQ ID NO: 64 used to knock down the Netrin-1 gene (guide CCGGGACTGCGATTCCTACTGCAAGCTCGAGCTTGCAGTAGGAATCGCAGTCTTTTTTG) [reference compound] | remarkably increased | remarkably increased |

Each molecule was assayed on HBV (assay: Anti-HBV activities of LIPG-binding peptides delivered into PXB cells-2 (scFv fusions, 4% PEG)). Details: presence of 4% PEG.
Type: cell-based
Experimental: as §1, §2
The anti-HBV activities of LIPG-binding peptides delivered into cells were evaluated using PXB cells and anti-ASGR single-chain antibody-LIPG-binding peptide fusions. The anti-HBV activity was evaluated in the presence of 4% PEG. The evaluation of the anti-HBV effect in the presence of PEG is more stringent than under the conditions in Example 18 without the presence of PEG because the HBV-DNA and cccDNA copy numbers are increased in the presence of PEG. Of the fusions prepared in Example 16, 10M-LN4SN, 10M-LN4N, 10M-LLNTSN, and 10M-LLNTSN-S39 were used. According to the timeline shown in FIG. 42A, the anti-HBV activities of the fusions were evaluated using the methods described in “(10-5) Infection experiment using PXB cells” and “(10-6) Quantification of HBV-DNA and cccDNA”.

| Molecule | HBV-DNA copy number | cccDNA copy number |
| --- | --- | --- |
| B1 | remarkably reduced | remarkably reduced |
| B2 | remarkably reduced | remarkably reduced |
| B3 | remarkably reduced | remarkably reduced |
| B4 | remarkably reduced | remarkably reduced |

Each molecule was assayed against T1, full-length form of LIPG (500 amino acids) (assay: Pull-down assay of LIPH4 peptides against full-length LIPG). Details: culture supernatant of transfected 293T cells, compared with no bait.
Type: binding
Experimental: Human embryonic kidney 293T cells were cultured in DMEM (1.0 g/l glucose) with L-Gln and Sodium Pyruvate, liquid (Nacalai) supplemented with 10% FCS ([…]). Plating was performed in a 1:2 ratio on 6 cm dishes 24 hours before transfection. Lipofectamine 2000 in a volume of 20 μl was added to 500 μl of Opti-MEM 1 and allowed to stand for 5 minutes at room temperature, and the resulting mixture was gently added to a 6 cm dish containing a mixture of 500 μl of Opti-MEM 1 and 8 μg of a plasmid DNA. The resulting mixture was allowed to stand for 20 minutes at room temperature, and then added to a 6 cm dish containing 293T cells, and the cells were cultured at 37° C. in 5% CO2 for 4 to 6 day.
Resin (Streptavidin MagneSphere Paramagnetic Particles) (Promega) was washed using the MagneSphere Technology Magnetic Separation Stand (tweleve-position). The resin in a volume of 40 μl was added to each 1.5 ml tube, and after removal of the solution, washed three times with 1 ml of PBS. The resin was transferred to new tubes and mixed with 0.5 nmol (109 μl) of LIPG-BioFLAGHis or with 109 μl of PBS as a no bait control, and the resulting mixtures were agitated at 4° C. for 1 hour by rotation on a mini-disk rotor (BIO CRAFT) to allow binding. After removal of the solution, the resin was washed three times with 1 ml of TBST (containing 0.05% Tween 20). The resin was transferred to new tubes, blocked with 1 ml of ELISA BSA buffer (TBS, 0.05%, Tween 20, 1% BSA. Nacalai Tesque, Inc.) at 4° C. for 1 hour, and then washed three times with 1 ml of ELISA BSA buffer. The resin was transferred to new tubes, and 1000 μl of the culture supernatant containing expressed KIgk-LIPH4 was mixed with […] of the resin treated with LIPG-BioFLAGHis or without the bait, and the resulting mixtures were agitated at 4° C. for 1 hour and 30 minutes by rotation on a mini-disk rotor (BIO CRAFT) to allow binding. After removal of the solution, the resin was washed three times with […] of TBST (Tween 20, 0.1%), and the recovered resin was used for Western blotting.
Each resin was mixed with water and LDS sample buffer (4×), 0.2 mM DTT, heated at 70° C. for 10 minutes, and then subjected to SDS-PAGE. SDS-PAGE was performed using 4-12% Bis-Tris gel and NuPAGE MES-SDS electrophoresis buffer (Invitrogen) at 200 V and 400 mA for 35 minutes. After electrophoresis, transfer was performed using Mini Format, 0.2-μm PVDF, Single-application (BIO-RAD) Trans-Blot Turbo. The membrane was blocked with a Blocking One Buffer: TBST (1:9) solution and reacted with an anti-Flag-HRP (Sigma: A8592) diluted 2:3000 in a Blocking One Buffer: TBST (1:9) solution. Detection was performed using ECL (Enhanced ChemiLuminescence) on a ChemiDoc (BIO-RAD).
A pull-down assay was performed on the full-length form of LIPG (500 amino acids) with LIPH4 peptides (FIG. 16).

| Molecule | binding to LIPG in pull-down assay |
| --- | --- |
| GADLRRGCC (LIPH4-87) [KIgk-LIPH4-87] | positive |
| LVPWLRYAY (LIPH4-12) [KIgk-LIPH4-12] | positive |
| LNVGYVFYP (LIPH4-15) [KIgk-LIPH4-15] | positive |
| CPCVNGATRHRPTSLC (LIPH4-16) [KIgk-LIPH4-16] | positive |
| RCRQSWNTM (LIPH4-14) [KIgk-LIPH4-14] | positive |
| SLYTGFRAH (LIPH4-2) [KIgk-LIPH4-2] | positive |
| LCECRDVLSCYYITDT (LIPH4-90) [KIgk-LIPH4-90] | positive |
| IRNVNHSDH (LIPH4-74) [KIgk-LIPH4-74] | positive |

Source: patent US20240277861A1, “ANTI-HEPATITIS B VIRUS AGENT TARGETING HOST FACTOR LIPG” (PUROTECH BIO, INC., priority 2021, published 2024)
